Test results from US20050214899.

T1: MADWLTFQKKHI
T1 chain: MADWLTFQKKHI

T2: MADYLT
T2 chain: MADYLT

T3: MADY
T3 chain: MADY

T4: MQDWLTFQKKHI
T4 chain: MQDWLTFQKKHI

T5: MQDYLT
T5 chain: MQDYLT

B1: MetAP-GTG (protein)
chain: AISIKTPEDIEKMRVAGRLAAEVLEMIEPYVKPGVSTGELDRICNDYIVNEQHAVSACLGYHGYPKSVCISINEVVCHGIPDDAKLLKDGDIVNIDVTVIKDGFHGDTSKMFIVGKPTIMGERLCRITQESLYLALRMVKPGINLREIGAAIQKFVEAEGFSVVREGCGHGIGRGFHEEPQVLHYDSRETNVVLKPGMTFTIEPTVNAGKKEIRTMKDGWTVKTKDRSLSAGYEHTIVVTDNGCEILTLRKDDTIPAIISHDE
B2: MetAP-M206T-Q233G (protein)
chain: AISIKTPEDIEKMRVAGRLAAEVLEMIEPYVKPGVSTGELDRICNDYIVNEQHAVSACLGYHGYPKSVCISINEVVCHGIPDDAKLLKDGDIVNIDVTVIKDGFHGDTSKMFIVGKPTIMGERLCRITQESLYLALRMVKPGINLREIGAAIQKFVEAEGFSVVREYCGHGIGRGFHEEPQVLHYDSRETNVVLKPGMTFTIEPTVNAGKKEIRTMKDGWTVKTKDRSLSAGYEHTIVVTDNGCEILTLRKDDTIPAIISHDE
B3: MetAP-YMQ (wild type E. coli methionine aminopeptidase) (protein)
chain: AISIKTPEDIEKMRVAGRLAAEVLEMIEPYVKPGVSTGELDRICNDYIVNEQHAVSACLGYHGYPKSVCISINEVVCHGIPDDAKLLKDGDIVNIDVTVIKDGFHGDTSKMFIVGKPTIMGERLCRITQESLYLALRMVKPGINLREIGAAIQKFVEAEGFSVVREYCGHGIGRGFHEEPQVLHYDSRETNVVLKPGMTFTIEPMVNAGKKEIRTMKDGWTVKTKDRSLSAQYEHTIVVTDNGCEILTLRKDDTIPAIISHDE
B4: MetAP-M206T-Q233T (protein)
chain: AISIKTPEDIEKMRVAGRLAAEVLEMIEPYVKPGVSTGELDRICNDYIVNEQHAVSACLGYHGYPKSVCISINEVVCHGIPDDAKLLKDGDIVNIDVTVIKDGFHGDTSKMFIVGKPTIMGERLCRITQESLYLALRMVKPGINLREIGAAIQKFVEAEGFSVVREYCGHGIGRGFHEEPQVLHYDSRETNVVLKPGMTFTIEPTVNAGKKEIRTMKDGWTVKTKDRSLSATYEHTIVVTDNGCEILTLRKDDTIPAIISHDE
B5: MetAP-M206G-Q233G (protein)
chain: AISIKTPEDIEKMRVAGRLAAEVLEMIEPYVKPGVSTGELDRICNDYIVNEQHAVSACLGYHGYPKSVCISINEVVCHGIPDDAKLLKDGDIVNIDVTVIKDGFHGDTSKMFIVGKPTIMGERLCRITQESLYLALRMVKPGINLREIGAAIQKFVEAEGFSVVREYCGHGIGRGFHEEPQVLHYDSRETNVVLKPGMTFTIEPGVNAGKKEIRTMKDGWTVKTKDRSLSAGYEHTIVVTDNGCEILTLRKDDTIPAIISHDE

What was measured:
[1] = molecular target: T1, MADWLTFQKKHI
[2] = molecular target: T2, MADYLT
[3] = molecular target: T3, MADY
[4] = molecular target: T4, MQDWLTFQKKHI
[5] = molecular target: T5, MQDYLT

| Protein | Specific activity (unit/mg) [1] | Specific activity (unit/mg) [2] | Specific activity (unit/mg) [3] | Specific activity (unit/mg) [4] | specific activity relative to that for MADWLTFQKKHI [4] | Specific activity (unit/mg) [5] |
| --- | --- | --- | --- | --- | --- | --- |
| B1 | 9.8 unit/mg | 2.5 unit/mg | 1.68 unit/mg | 4.24 unit/mg | The specific activity of MetAP-GTG on the dodecapeptide MQDWLTFQKKHI is 43% of that for MADWLTFQKKHI | 0.23 unit/mg |
| B2 | 73 unit/mg | 116 unit/mg | 72 unit/mg | 0.59 unit/mg |  | 0.42 unit/mg |
| B3 | 85 unit/mg | 138 unit/mg | 138 unit/mg | 0.62 unit/mg |  | 0.43 unit/mg |
| B4 |  | 0.12 unit/mg | 0.38 unit/mg |  |  | 0.13 unit/mg |
| B5 | 3.28 unit/mg | 0.29 unit/mg | 0.51 unit/mg | 0.5 unit/mg |  | 0.29 unit/mg |
